Assay results as given in patent US20180028641A1 (GlaxoSmithKline, published 2018).

Target: T1, human transferrin hTF (Sigma T-4132) (human, UniProt P02787 20-698)
T1 construct: Bought protein
Assay: gel filtration (Superdex 200 PC 3.2/30) of each protein and of the mixture, fractions analysed by SDS-PAGE

T1 sequence (P02787 20-698 limits assumed): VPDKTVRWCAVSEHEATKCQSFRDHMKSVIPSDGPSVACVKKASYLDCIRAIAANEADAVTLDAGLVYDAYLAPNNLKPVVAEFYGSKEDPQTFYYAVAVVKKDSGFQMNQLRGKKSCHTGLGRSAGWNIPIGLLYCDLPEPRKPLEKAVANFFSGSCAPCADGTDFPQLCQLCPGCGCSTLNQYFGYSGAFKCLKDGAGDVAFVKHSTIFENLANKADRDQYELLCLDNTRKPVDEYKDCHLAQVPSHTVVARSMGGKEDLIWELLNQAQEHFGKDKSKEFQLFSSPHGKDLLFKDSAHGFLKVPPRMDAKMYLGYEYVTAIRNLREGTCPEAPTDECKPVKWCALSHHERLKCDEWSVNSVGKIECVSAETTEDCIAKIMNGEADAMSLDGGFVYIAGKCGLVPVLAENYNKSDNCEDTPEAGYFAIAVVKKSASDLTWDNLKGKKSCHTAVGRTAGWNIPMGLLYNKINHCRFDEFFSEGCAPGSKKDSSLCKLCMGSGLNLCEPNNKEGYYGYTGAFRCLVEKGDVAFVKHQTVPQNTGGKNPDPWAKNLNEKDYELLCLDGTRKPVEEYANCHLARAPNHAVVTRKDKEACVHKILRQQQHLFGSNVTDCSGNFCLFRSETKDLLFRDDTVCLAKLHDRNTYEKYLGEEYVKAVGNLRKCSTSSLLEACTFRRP

B1: recombinant NMB1870 (strain MC58, variant 1), His-tag fusion expressed in E. coli without the leader peptide (other)
chain: CSSGGGGVAADIGAGLADALTAPLDHKDKGLQSLTLDQSVRKNEKLKLAAQGAEKTYGNGDSLNTGKLKNDKVSRFDFIRQIEVDGQLITLESGEFQVYKQSHSALTAFQTEQIQDSEHSGKMVAKRQFRIGDIAGEHTSFDKLPEGGRATYRGTAFGSDDAGGKLTYTIDFAAKQGNGKIEHLKSPELNVDLAAADIKPDGKRHAVISGSVLYNQAEKGSYSLGIFGGKAQEVAGSAEVKTVNGIRHIGLAAKQ
notes: also called purified NMB1870; the recombinant protein; not shown: His-tag (pET-21b+ vector)
binding result: no binding (tested: 7 µM)
